Measurements taken from PMC2834593, “NMR characterisation of the minimal interacting regions of centrosomal proteins 4.1R and NuMA1: effect of phosphorylation” (BMC Biochemistry, 2010).

Target: T1, 4.1R-CTD64 (last 64 amino acids of the C-terminal domain of human protein 4.1R) (human, 15N labelled)
T1 construct: protein 4.1R, human, last 64 amino acids (part of the C-terminal domain, CTD); Cloned with NdeI into a modified pET15b with a TEV site; also called 4.1R-CTD64 subdomain; 64 amino acids subdomain
T1 chain: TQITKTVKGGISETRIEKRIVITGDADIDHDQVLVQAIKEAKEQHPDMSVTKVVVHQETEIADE
Test: NMR titration; 15N labelled 4.1R-CTD64 (0.1 mM, 100 mM Na2HPO4, 90% H2O/10% D2O) titrated with NuMA1 peptide up to 20:1, followed by 1H-15N HSQC, pH 4.9, 25°C; chemical shift perturbation analysis
Settings: both partners purified

B1: NuMA1 interacting peptide (N1I), residues 1785-1810 of NuMA1 (peptide)
peptide: Ac-DSGRKTRSARRRTTQIINITMTKKLD-NH2
notes: also called NI1; non-phosphorylated NuMA peptide; source: synthetic peptide, bought: Caslo (Denmark)
B1: binds.
